In patent publication US7115410 (ELAN PHARMACEUTICALS, dated 2006):
Square brackets hold non-standard residues; d marks the D form. Sta = CC(C)C[C@H](N)[C@@H](O)CC(=O)O

How the values were obtained:
[1] = molecular target: T1, recombinant β-secretase from 293T or Cos A2 cells transfected with the full-length construct, form with … (human, UniProt P56817 46-501); experiment: affinity chromatography on P10-P4′staD→V Sepharose, extracts of transfected 293T and COS A2 cells, pH 4.5
T1 construct: also called Recombinant, 293T; Recombinant, CosA2
T1 sequence (P56817 46-501): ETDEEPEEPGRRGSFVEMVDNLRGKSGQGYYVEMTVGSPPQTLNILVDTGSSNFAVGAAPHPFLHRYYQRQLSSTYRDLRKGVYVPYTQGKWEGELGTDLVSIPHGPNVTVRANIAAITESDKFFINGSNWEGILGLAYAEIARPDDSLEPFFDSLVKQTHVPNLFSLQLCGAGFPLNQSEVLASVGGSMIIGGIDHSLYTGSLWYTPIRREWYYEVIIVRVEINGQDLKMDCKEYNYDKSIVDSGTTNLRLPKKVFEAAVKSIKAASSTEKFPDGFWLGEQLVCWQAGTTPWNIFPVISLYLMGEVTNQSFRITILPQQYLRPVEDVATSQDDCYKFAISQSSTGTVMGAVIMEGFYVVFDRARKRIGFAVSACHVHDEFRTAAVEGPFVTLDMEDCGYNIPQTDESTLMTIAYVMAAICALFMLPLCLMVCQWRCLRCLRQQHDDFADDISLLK
Method: (§1) The cell pellet was resuspended by homogenizing for 30 seconds using a handheld homogenizer (0.5 ml/pellet of approximately 10^6 cells in extraction buffer consisting of 20 mM TRIS buffer, pH 7.5, 2 mM EDTA, 0.2% Triton X-100, plus protease inhibitors: 5 μg/ml E-64, 10 μg/ml pepstatin, 1 mM PMSF), centrifuged as maximum speed in a microfuge (40 minutes at 4 degrees C.). Pellets were suspended in original volume of extraction buffer, then stirred at 1 hour at 4 degrees C. with rotation, and centrifuted again in a microfuge at maximum speed for 40 minutes. The resulting supernatant was saved as the "extract." The extract was then diluted with 20 mm sodium acetate, pH 5.0, 2 mM EDTA and 0.2% Triton X-100 (SP buffer A), and 5 M NaCl was added to a final concentration of 60 mM NaCl. The pH of the solution was then adjusted to pH 5.0 with glacial acetic acid diluted 1:10 in water. Aliquots were saved ("SP load"). The SP load was passed through a 1 ml SP HiTrap column which was pre-washed with 5 ml SP buffer A, 5 ml SP buffer B (SP buffer A with 1 M NaCl) and 10 ml SP buffer A. An additional 2 ml of 5% SP buffer B was passed through the column to dissplace any remaining sample from the column. The pH of the SP flow-through was adjusted to pH 4.5 with 10× diluted acetic acid. This flow-through was then applied to a P10-P4'staD→V-Sepharose Affinity column, as described below. […]

[2] = molecular target: T2, recombinant β-secretase from Cos A2 cells, major form resulting from Gly-58 cleavage (human, UniProt P56817 58-501); experiment: N-terminal sequencing of fractions from P10-P4′(statine)D→V Sepharose, Cos A2 cells
T2 construct: C-terminus not determined
T2 sequence (P56817 58-501): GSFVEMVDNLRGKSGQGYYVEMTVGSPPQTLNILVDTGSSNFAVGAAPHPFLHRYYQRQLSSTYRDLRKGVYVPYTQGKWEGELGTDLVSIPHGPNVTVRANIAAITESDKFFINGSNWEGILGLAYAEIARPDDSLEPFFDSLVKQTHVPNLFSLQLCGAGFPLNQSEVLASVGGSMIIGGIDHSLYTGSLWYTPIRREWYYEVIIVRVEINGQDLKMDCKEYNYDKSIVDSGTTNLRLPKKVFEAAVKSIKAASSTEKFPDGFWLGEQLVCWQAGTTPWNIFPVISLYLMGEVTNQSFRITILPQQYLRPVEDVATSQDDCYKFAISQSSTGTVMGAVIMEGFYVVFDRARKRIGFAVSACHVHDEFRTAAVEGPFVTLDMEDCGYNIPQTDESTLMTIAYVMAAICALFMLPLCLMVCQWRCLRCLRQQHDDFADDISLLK
Method: as §1

[3] = molecular target: T3, recombinant β-secretase from 293T cells, minor form starting at Thr-22 (human, UniProt P56817 22-501); experiment: N-terminal sequencing of fractions from P10-P4′staD→V Sepharose, 293T cells
T3 construct: C-terminus not determined
T3 sequence (P56817 22-501): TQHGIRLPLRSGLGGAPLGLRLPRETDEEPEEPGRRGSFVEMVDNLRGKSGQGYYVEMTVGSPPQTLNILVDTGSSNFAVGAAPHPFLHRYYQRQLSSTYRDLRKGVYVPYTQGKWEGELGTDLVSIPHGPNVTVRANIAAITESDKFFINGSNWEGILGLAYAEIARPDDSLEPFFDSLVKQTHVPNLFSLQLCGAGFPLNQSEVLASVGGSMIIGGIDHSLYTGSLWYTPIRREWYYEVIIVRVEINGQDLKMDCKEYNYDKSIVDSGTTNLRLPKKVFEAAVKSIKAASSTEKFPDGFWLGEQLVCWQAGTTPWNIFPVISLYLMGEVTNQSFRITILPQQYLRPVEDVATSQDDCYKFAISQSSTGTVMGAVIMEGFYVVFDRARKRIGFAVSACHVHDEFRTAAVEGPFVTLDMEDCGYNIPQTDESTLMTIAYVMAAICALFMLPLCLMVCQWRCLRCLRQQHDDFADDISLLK
Method: as §1

[4] = molecular target: T4, recombinant β-secretase from 293T cells, minor form starting at Met-63 (human, UniProt P56817 63-501); experiment: N-terminal sequencing of fractions from P10-P4′(statine)D→V Sepharose, 293T cells
T4 construct: C-terminus not determined
T4 sequence (P56817 63-501): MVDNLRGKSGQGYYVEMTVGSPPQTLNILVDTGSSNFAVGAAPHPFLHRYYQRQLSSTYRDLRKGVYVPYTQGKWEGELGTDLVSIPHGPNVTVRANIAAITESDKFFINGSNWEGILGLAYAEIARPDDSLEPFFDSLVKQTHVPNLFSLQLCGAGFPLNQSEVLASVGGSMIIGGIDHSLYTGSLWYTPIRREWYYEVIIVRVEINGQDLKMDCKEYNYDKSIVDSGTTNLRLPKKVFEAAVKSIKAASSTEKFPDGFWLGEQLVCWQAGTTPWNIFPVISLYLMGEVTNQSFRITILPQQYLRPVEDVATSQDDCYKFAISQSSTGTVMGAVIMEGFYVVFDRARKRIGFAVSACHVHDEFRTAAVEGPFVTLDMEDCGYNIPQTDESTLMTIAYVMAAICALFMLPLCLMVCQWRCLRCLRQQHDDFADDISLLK
Method: as §1

β-secretase 46-452 = molecular target: T5, β-secretase 46-452 (human, UniProt P56817 46-452); experiment: binding to P10-P4′staD→V affinity matrix
T5 construct: C-terminally truncated form lacking the transmembrane region
T5 sequence (P56817 46-452 limits assumed): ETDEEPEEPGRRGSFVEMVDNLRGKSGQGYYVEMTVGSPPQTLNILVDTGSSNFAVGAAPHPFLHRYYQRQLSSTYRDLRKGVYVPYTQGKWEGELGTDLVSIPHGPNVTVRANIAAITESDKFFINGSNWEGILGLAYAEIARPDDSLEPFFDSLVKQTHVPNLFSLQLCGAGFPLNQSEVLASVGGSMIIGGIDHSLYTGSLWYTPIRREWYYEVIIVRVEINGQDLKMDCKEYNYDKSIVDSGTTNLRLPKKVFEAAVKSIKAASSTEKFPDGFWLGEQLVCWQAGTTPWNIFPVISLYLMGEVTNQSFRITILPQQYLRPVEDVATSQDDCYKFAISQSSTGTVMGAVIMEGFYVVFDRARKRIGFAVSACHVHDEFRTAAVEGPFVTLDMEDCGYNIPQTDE

Measured: binding result

B1: P10-P4′staD→V (NH2-KTEEISEVN[sta]VAEF-COOH) (peptide)
peptide: H-KTEEISEVN[Sta]VAEF-OH
notes: Synthetic statine peptide derived from the APPsw cleavage site with D→V at P1′; also called P10-P4′(statine)D→V
binds: all assays above
